Source: US20240270846A1 (published 2024)
Where no end group is shown, it is not given here.

Experiments:
[1] = target: human CD137 expressed on cells (human, UniProt Q07011 24-255); assay: cell-based or functional assay
recombinant human CD137 = target: T1, recombinant human CD137 (human, UniProt Q07011 24-186); assay: SPR (Biacore T200, 37 degrees C), antibody captured by anti-human Fc, antigen as analyte, 1:1 model
T1 construct: also called hCD137

recombinant human CD3 = target: T2, recombinant human CD3 (human, UniProt P07766 23-126); assay: as above
T2 construct: also called hCD3

[2] = target: T3, biotin-labeled human CD137 fused to human IgG1 Fc fragment (human, biotin-labeled); assay: ECL, IgG with biotinylated antigen
T3 construct: also called human CD137-Fc; biotin-human CD137-Fc

[3] = target: T4, CD3 epsilon peptide antigen (human, also: biotin-labeled as coated antigen, free as competitor, biotin position not given here); assay: ECL, IgG with biotinylated antigen
T4 construct: also called biotin-labeled CD3 epsilon peptide; CD3 peptide
T4 peptide: QDGNEEMGGITQTPY

[4] = target: T4, CD3 epsilon peptide antigen; assay: ELISA, IgG supernatant, biotinylated antigen on streptavidin plate
[5] = target: T5, biotinylated CD3 epsilon epitope peptide (UniProt P07766 22-48, biotinylated); assay: SPR (Biacore); biotinylated CD3 epsilon epitope peptide on chip via streptavidin, antibody as analyte
T5 chain: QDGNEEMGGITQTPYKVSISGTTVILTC

[6] = target: T6, biotin-labeled human CD137 fused to human IgG1 Fc fragment (human CD137-Fc) (human, biotin-labeled); assay: bead ELISA on biotin-human CD137-Fc, 250 ng IgG; free human IgG1 Fc 62.5 pmol as control competitor
T6 construct: also called biotin-human CD137-Fc

[7] = target: T6, biotin-labeled human CD137 fused to …; assay: bead ELISA on biotin-human CD137-Fc; decrease of signal with free CD3 epsilon as competitor against free Fc
[8] = target: T6, biotin-labeled human CD137 fused to …; assay: bead ELISA on biotin-human CD137-Fc, 250 ng IgG; free CD3 epsilon 62.5 pmol as competitor

B1: GPC3/CD137 × CD3 (other)
VH 1: QVQLQQWGAGLLKPSETLSLTCAVYGGSFSGYYWSWIRQSPEKGLEWIGEINHGGYVTYNPSLESRVTISVDTSKNQFSLKLSSVTAADTAVYYCARDYGPGNYDWYFDLWGRGTLVTVSS
VL 1: EIVLTQSPATLSLSPGERATLSCRASQSVSSYLAWYQQKPGQAPRLLIYDASNRATGIPARFSGSGSGTDFTLTISSLEPEDFAVYYCQQRSNWPPALTFGGGTKVEIK
VH 2: QVQLVESGGGLVQPGRSLRLSCAASGFTFSNAWMHWVRQAPGKGLEWVAQIKDRANSYNTYYAESVKGRFTISRDDSKNSIYLQMNSLKTEDTAVYYCRYVHYTTYAGSSFSYGVDAWGQGTTVTVSS
VL 2: DIVMTQSPLSLPVTPGEPASISCRSSQPLVHSNRNTYLHWYQQKPGQAPRLLIYKVSNRFSGVPDRFSGSGSGTDFTLKISRVEAEDVGVYYCGQGTQVPYTFGQGTKLEIK
VH 3: QVQLVQSGAEVKKPGASVTVSCKASGYTFTDYEMHWIRQPPGEGLEWIGAIDGPTPDTAYSEKFKGRVTLTADKSTSTAYMELSSLTSEDTAVYYCTRFYSYTYWGQGTLVTVSS
VL 3: DIVMTQSPLSLPVTPGEPASISCRSSQPLVHSNRNTYLHWYQQKPGQAPRLLIYKVSNRFSGVPDRFSGSGSGTDFTLKISRVEAEDVGVYYCGQGTQVPYTFGQGTKLEIK
Luminescence against CD137 positive cells relative to that against GPC3 positive cells, 1 nM [1]: ~107%
Luminescence against CD137 positive cells relative to that against GPC3 positive cells, 10 nM [1]: ~128%

B2: GPC3/CD137xCD3 trispecific antibody (other)
VH 1: QVQLQQWGAGLLKPSETLSLTCAVYGGSFSGYYWSWIRQSPEKGLEWIGEINHGGYVTYNPSLESRVTISVDTSKNQFSLKLSSVTAADTAVYYCARDYGPGNYDWYFDLWGRGTLVTVSS
VL 1: EIVLTQSPATLSLSPGERATLSCRASQSVSSYLAWYQQKPGQAPRLLIYDASNRATGIPARFSGSGSGTDFTLTISSLEPEDFAVYYCQQRSNWPPALTFGGGTKVEIK
VH 2: QVQLVESGGGLVQPGRSLRLSCAASGFTFSNAWMHWVRQAPGKGLEWVAQIKDRANSYNTYYAESVKGRFTISRDDSKNSIYLQMNSLKTEDTAVYYCRYVHYTTYAGSSFSYGVDAWGQGTTVTVSS
VL 2: DIVMTQSPLSLPVTPGEPASISCRSSQPLVHSNRNTYLHWYQQKPGQAPRLLIYKVSNRFSGVPDRFSGSGSGTDFTLKISRVEAEDVGVYYCGQGTQVPYTFGQGTKLEIK
VH 3: QVQLVQSGAEVKKPGASVTVSCKASGYTFTDYEMHWIRQPPGEGLEWIGAIDGPTPDTAYSEKFKGRVTLTADKSTSTAYMELSSLTSEDTAVYYCTRFYSYTYWGQGTLVTVSS
VL 3: DIVMTQSPLSLPVTPGEPASISCRSSQPLVHSNRNTYLHWYQQKPGQAPRLLIYKVSNRFSGVPDRFSGSGSGTDFTLKISRVEAEDVGVYYCGQGTQVPYTFGQGTKLEIK
notes: Made by Fab-arm exchange of mAb A (CrossMab, each arm carrying Fv A1 and Fv A2) with mAb B (conventional IgG); Fc is Fc gamma R silent (L235R, G236R, S239K) and deglycosylated (N297A); also called GPC3/CD137 × CD3; anti-GPC3/CD137×CD3
Kd (recombinant human CD137): 37.7 nM
koff (recombinant human CD137): 0.0206 s⁻¹
kon (recombinant human CD137): 547000 M⁻¹ s⁻¹
Kd (recombinant human CD3): 19.7 nM
koff (recombinant human CD3): 0.00161 s⁻¹
kon (recombinant human CD3): 81800 M⁻¹ s⁻¹

B3: dBBDu_011 (antibody, V domains shown)
VH: QVQLVESGGGLVQPGRSLRLSCAASGFTFSNAWMHWVRQAPGKGLEWVAQIKDKSSLYNTYYAPSVKGRFTISRDDSKNSIYLQMNSLKTEDTAVYYCRYVHYGASYGFLFAGYGVDAWGQGTTVTVSS
VL: DIVMTQSPLSLPVTPGEPASISCRSSQSLVHSNRNTYLHWYQQKPGQAPRLLIYKVSNRFSGVPDRFSGSGSGTDFTLKISRVEAEDVGVYYCGQGTQVPYTFGQGTKLEIK
notes: Converted to IgG: VH joined to human IgG1 constant domains; also called clone 011
binding result [2]: binds
binding result [3]: binds

B4: dBBDu_115 (antibody, IgG1, V domains shown)
VH: QVQLVESGGGLVQPGRSLRLSCAASGFTFSNAWMHWVRQAPGKGLEWVAQIKDKANSYNTYYAPSVKGRFTISRDDSKNSIYLQMNSLKTEDTAVYYCRYVHYGSSYGFLFAGYGVDAWGQGTTVTVSS
VL: DIVMTQSPLSLPVTPGEPASISCRSSQSLVHSNRNTYLHWYQQKPGQAPRLLIYKVSNRFSGVPDRFSGSGSGTDFTLKISRVEAEDVGVYYCGQGTQVPYTFGQGTKLEIK
notes: IgG1 format with GLS3000 light chain
binding result [4]: binds

B5: CE115HA000 V11L/D72A/L78I/D101Q without insertion, one-arm antibody (antibody, human IgG1, kappa, L234A L235A, N297A, name in Kabat numbering)
heavy: QVQLVESGGGLVQPGRSLRLSCAASGFTFSNAWMHWVRQAPGKGLEWVAQIKAKSNNYATYYAESVKGRFTISRADSKNSIYLQMNSLKTEDTAVYYCRYVHYGAYYGVQAWGQGTTVTVSSASTKGPSVFPLAPSSKSTSGGTAALGCLVKDYFPEPVTVSWNSGALTSGVHTFPAVLQSSGLYSLSSVVTVPSSSLGTQTYICNVNHKPSNTKVDKKVEPKSCDKTHTCPPCPAPEAAGGPSVFLFPPKPKDTLMISRTPEVTCVVVDVSHEDPEVKFNWYVDGVEVHNAKTKPREEQYASTYRVVSVLTVLHQDWLNGKEYKCKVSNKALPAPIEKTISKAKGQPREPQVYTLPPSRCELTKNQVSLSCAVKGFYPSDIAVEWESNGQPENNYKTTPPVLDSDGSFFLVSKLTVDKSRWQQGNVFSCSVMHEALHNHYTQKSLSLSPDYKDDDDK
chain: EPKSSDKTHTCPPCPAPELLGGPSVFLFPPKPKDTLMISRTPEVTCVVVDVSHEDPEVKFNWYVDGVEVHNAKTKPREEQYNSTYRVVSVLTVLHQDWLNGKEYKCKVSNKALPAPIEKTISKAKGQPREPQVCTLPPSRDELTKNQVSLWCLVKGFYPSDIAVEWESNGQPENNYKTTPPVLDSDGSFFLYSKLTVDKSRWQQGNVFSCSVMHEALHNRYTQKSLSLSP
light: DIVMTQSPLSLPVTPGEPASISCRSSQSLVHSNRNTYLHWYQQKPGQAPRLLIYKVSNRFSGVPDRFSGSGSGTDFTLKISRVEAEDVGVYYCGQGTQVPYTFGQGTKLEIKRTVAAPSVFIFPPSDEQLKSGTASVVCLLNNFYPREAKVQWKVDNALQSGNSQESVTEQDSKDSTYSLSSTLTLSKADYEKHKVYACEVTHQGLSSPVTKSFNRGEC
notes: one-arm antibody; also called No insertion
Kd [5]: 6.96 nM

B6: CE115HA000 (unaltered), one-arm antibody with GLS3000 (antibody, human IgG1, kappa, L234A L235A, N297A)
heavy: QVQLVESGGGVVQPGRSLRLSCAASGFTFSNAWMHWVRQAPGKGLEWVAQIKAKSNNYATYYAESVKGRFTISRDDSKNSLYLQMNSLKTEDTAVYYCRYVHYGAYYGVDAWGQGTTVTVSSASTKGPSVFPLAPSSKSTSGGTAALGCLVKDYFPEPVTVSWNSGALTSGVHTFPAVLQSSGLYSLSSVVTVPSSSLGTQTYICNVNHKPSNTKVDKKVEPKSCDKTHTCPPCPAPEAAGGPSVFLFPPKPKDTLMISRTPEVTCVVVDVSHEDPEVKFNWYVDGVEVHNAKTKPREEQYASTYRVVSVLTVLHQDWLNGKEYKCKVSNKALPAPIEKTISKAKGQPREPQVYTLPPSRCELTKNQVSLSCAVKGFYPSDIAVEWESNGQPENNYKTTPPVLDSDGSFFLVSKLTVDKSRWQQGNVFSCSVMHEALHNHYTQKSLSLSPDYKDDDDK
chain: EPKSSDKTHTCPPCPAPELLGGPSVFLFPPKPKDTLMISRTPEVTCVVVDVSHEDPEVKFNWYVDGVEVHNAKTKPREEQYNSTYRVVSVLTVLHQDWLNGKEYKCKVSNKALPAPIEKTISKAKGQPREPQVCTLPPSRDELTKNQVSLWCLVKGFYPSDIAVEWESNGQPENNYKTTPPVLDSDGSFFLYSKLTVDKSRWQQGNVFSCSVMHEALHNRYTQKSLSLSP
light: DIVMTQSPLSLPVTPGEPASISCRSSQSLVHSNRNTYLHWYQQKPGQAPRLLIYKVSNRFSGVPDRFSGSGSGTDFTLKISRVEAEDVGVYYCGQGTQVPYTFGQGTKLEIKRTVAAPSVFIFPPSDEQLKSGTASVVCLLNNFYPREAKVQWKVDNALQSGNSQESVTEQDSKDSTYSLSSTLTLSKADYEKHKVYACEVTHQGLSSPVTKSFNRGEC
Kd [5]: 110 nM

B7: dBBDu193/L127 (antibody, V domains shown)
VH: QVQLVESGGGLVQPGRSLRLSCAASGFTFSNAWMHWVRQAPGKGLEWVAQIKDRSNQYATYYAPSVKGRFTISRDDSKNSIYLQMNSLKTEDTAVYYCHYVHYSAASTLLPSFGVDAWGQGTTVTVSS
VL: DIVMTQSPLSLPVTPGEPASISCRASEELLHINRHIFLHWYQQKPGQAPRLLIYKVYNRFTGVPDRFSGSGSGTDFTLKISRVEAEDVGVYYCAQGTSVPFTFGQGTKLEIK
notes: also called dBBDu_193 / dBBDu.L127
ELISA signal with Free Fc 62.5 pmol [6]: 6080
Signal decrease [7]: 59.4%
ELISA signal with Free CD3e 62.5 pmol [8]: 2470

B8: dBBDu189/L126 (antibody, V domains shown)
VH: QVQLVESGGGLVQPGRSLRLSCAASGFTFSNAWMHWVRQAPGKGLEWIAQIKDRSNQYATYYAPSVKGRFTISRDDSKNSIYLQMNSLKTEDTAVYYCHYVHYAQASSLLPSFGVDAWGQGTTVTVSS
VL: DIVMTQSPLSLPVTPGEPASISCRTSEELLHINRYIFLHWYQQKPGQAPRLLIYKVQNRFSGVPDRFSGSGSGTDFTLKISRVEAEDVGVYYCAQGSAVPFTFGQGTKLEIK
ELISA signal with Free Fc 62.5 pmol [6]: 75100
Signal decrease [7]: 87%
ELISA signal with Free CD3e 62.5 pmol [8]: 9750

B9: dBBDu193/L132 (antibody, V domains shown)
VH: QVQLVESGGGLVQPGRSLRLSCAASGFTFSNAWMHWVRQAPGKGLEWVAQIKDRSNQYATYYAPSVKGRFTISRDDSKNSIYLQMNSLKTEDTAVYYCHYVHYSAASTLLPSFGVDAWGQGTTVTVSS
VL: DIVMTQSPLSLPVTPGEPASISCQTSEELVHINRFIFLHWYQQKPGQAPRLLIYKVSNRFSGVPDRFSGSGSGTDFTLKISRVEAEDVGVYYCAQGTSVPFTFGQGTKLEIK
notes: also called dBBDu_193 / dBBDu.L132
ELISA signal with Free Fc 62.5 pmol [6]: 116000
Signal decrease [7]: 91%
ELISA signal with Free CD3e 62.5 pmol [8]: 10400
